Numbering of substitutions follows the chain as printed. In names and notes the source's numbering stands.
B1: WT: wild-type squalene hopene cyclase from Gluconobacter morbifer, SEQ ID NO: 1 / SEQ ID NO: 2 (protein)
chain: MSPADISTKSSSFQRLDNMLPEAVSSACDWLIDQQKPDGHWVGPVESNACMEAQWCLALWFLGQEDHPLRPRLAQALLEMQREDGSWGIYVGADHGDINTTVEAYAALRSMGYAADMPIMAKSAAWIQQKGGLRNVRVFTRYWLALIGEWPWDKTPNLPPEIIWLPDNFIFSIYNFAQWARATMMPLTILSARRPSRPLLPENRLDGLFPEGRENFDYELPVKGEEDLWGRFFRAADKGLHSLQSFPVRRFVPREAAIRHVIEWIIRHQDADGGWGGIQPPWIYGLMALSVEGYPLHHPVLAKAMDALNDPGWRRDKGDASWIQATNSPVWDTMLAVLALHDAGAEDRYSPQMDKAIGWLLDRQVRVKGDWSIKLPDTEPGGWAFEYANDKYPDTDDTAVALIALAGCRHRPEWRERDIEGAISRGVNWLLAMQSSSGGWGAFDKDNNRSILTKIPFCDFGEALDPPSVDVTAHVLEAFGLLGISRNHPSVQKALAYIRSEQERNGAWFGRWGVNYVYGTGAVLPALAAIGEDMTQPYIVRACDWLMSVQQENGGWGESCASYMDINAVGHGVATASQTAWALIGLLAAKRPKDREAIARGCQFLIERQEDGSWTEEEYTGTGFPGYGVGQAIKLDDPSLPDRLLQGAELSRAFMLRYDLYRQYFPVMALSRARRMMKEDASAAA
modifications: Gluconobacter morbifer
B2: V45L + Q54E + V222R + I278T + T326S: GmSHC variant with these substitutions relative to SEQ ID NO: 2 (protein)
chain: B1 chain with V45L, Q54E, V222R, I278T, T326S
modifications: Gluconobacter morbifer
B3: V45L + Q54E + R249R + I278T + T326S: GmSHC variant with these substitutions relative to SEQ ID NO: 2; R249R is a silent mutation (protein)
chain: B1 chain with V45L, Q54E, I278T, T326S
modifications: Gluconobacter morbifer
notes: R249R is a silent mutation
B4: V45L + Q54E + V222Q + R249R + I278T + T326S: GmSHC variant with these substitutions relative to SEQ ID NO: 2 (protein)
chain: B1 chain with V45L, Q54E, V222Q, I278T, T326S
modifications: Gluconobacter morbifer
B5: V45L + Q54E + V222K + I278S + T326S: GmSHC variant with these substitutions relative to SEQ ID NO: 2 (protein)
chain: B1 chain with V45L, Q54E, V222K, I278S, T326S
modifications: Gluconobacter morbifer
B6: V45L + Q54E + V222K + I278T + T326S: GmSHC variant with these substitutions relative to SEQ ID NO: 2 (protein)
chain: B1 chain with V45L, Q54E, V222K, I278T, T326S
modifications: Gluconobacter morbifer
B7: V45L + Q54E + M184T + R249R + I278T + T326S: GmSHC variant with these substitutions relative to SEQ ID NO: 2 (protein)
chain: B1 chain with V45L, Q54E, M184T, I278T, T326S
modifications: Gluconobacter morbifer
B8: V45L + Q54E + I278T + T326S: GmSHC variant, first mutant enzyme which showed formation of sclareolide (protein)
chain: B1 chain with V45L, Q54E, I278T, T326S
B9: V45L + Q54E + V222K + R249R + I278T + T326S: GmSHC variant with these substitutions relative to SEQ ID NO: 2 (protein)
chain: B1 chain with V45L, Q54E, V222K, I278T, T326S
modifications: Gluconobacter morbifer
B10: V45L + Q54E + V222Q + R249R + I278T + T326S + A683E: GmSHC variant with these substitutions relative to SEQ ID NO: 2 (protein)
chain: B1 chain with V45L, Q54E, V222Q, I278T, T326S, A683E
modifications: Gluconobacter morbifer
B11: V45L + Q54E + Q178S + V222K + I278S + T326S: GmSHC variant with these substitutions relative to SEQ ID NO: 2 (protein)
chain: B1 chain with V45L, Q54E, Q178S, V222K, I278S, T326S
modifications: Gluconobacter morbifer
B12: V45L + Q54E + V222K + I278A + T326S: GmSHC variant with these substitutions relative to SEQ ID NO: 2 (protein)
chain: B1 chain with V45L, Q54E, V222K, I278A, T326S
modifications: Gluconobacter morbifer
B13: V45L + Q54E + R249R + I278T + T326S + A574A: GmSHC variant with these substitutions relative to SEQ ID NO: 2 (protein)
chain: B1 chain with V45L, Q54E, I278T, T326S
modifications: Gluconobacter morbifer
B14: V45L + Q54E + Q178S + V222R + 1278T + T326S: GmSHC variant with these substitutions relative to SEQ ID NO: 2 (protein)
chain: B1 chain with V45L, Q54E, Q178S, V222R, I278T, T326S
modifications: Gluconobacter morbifer
B15: V45L + Q54E + R249R + I278A + T326S: GmSHC variant with these substitutions relative to SEQ ID NO: 2 (protein)
chain: B1 chain with V45L, Q54E, I278A, T326S
modifications: Gluconobacter morbifer
B16: V45L + Q54E + V222Q + Y284W + R249R + 1278T + T326S: GmSHC variant with these substitutions relative to SEQ ID NO: 2 (protein)
chain: B1 chain with V45L, Q54E, V222Q, I278T, Y284W, T326S
modifications: Gluconobacter morbifer

Assay: SHC variant screening reactions: conversion of HFA to sclareolide by freeze-dried whole cells, GC analysis
Format: biochemical, Gluconobacter morbifer
Conditions: 10 mg/mL HFA, 100% enzyme loading
Experimental: SHC Variant Enzyme Expression. Wild-type and the GmSHC variants of Table 5 were individually cloned into pET28a(+). These DNA constructs were transformed into Lemo21 (DE3) E. coli and plated onto agar plates containing Kanamycin. These were incubated overnight at 37° C. A single bacterial colony was picked and used to inoculate 10 mL LB+Kanamycin in a 50 mL falcon tube. This primary culture was incubated overnight at 37° C. with agitation. These cultures (10 mL) were used to inoculate 1L LB+Kanamycin in a shake flask, which was subsequently incubated at 37° C. at 180 rpm for about 4 hours. Protein expression was then induced with the addition of 0.4 mM IPTG and 0.2 mM L-rhamnose. The incubator temperature was lowered to 25° C. and the cultures further incubated at 180 rpm overnight. The next day, the cultures were centrifuged at 4000 rpm for 10 minutes and the supernatant discarded. Cell pellets were resuspended in 0.1 M Potassium phosphate buffer pH 7.4 and exposed to 1 round of freeze/thawing before lyophilization and then use in the reaction assay.
SHC Variant Screening Reactions. Sodium citrate buffer 0.2 M, pH 5 was prepared and 500 μL of this buffer was added to freeze-dried whole cells of each variant (from 1 L shake flask fermentation of E. coli transformed with desired variant plasmid). The results were obtained with an enzyme loading of 50% (w/w). Subsequently, HFA (20 mg/mL) was added to the buffer/enzyme mix. The reactions were incubated at 25° C. with agitation for 72 hours. To stop the reaction and extract the products, a 2X volume of 3:2, heptane: isopropanol was added to each reaction. These were then incubated at 37° C. for 30 minutes with agitation to mix thoroughly. The reactions were centrifuged for 10 minutes at 4000 rpm to pellet any cellular material. The upper organic layer was then removed and placed in a clean gas chromatography (GC) vial.
GC Analysis Method. A GC analytical method was used to detect each of the starting materials and products used in the screening reactions. Due to the volume of samples generated, a fast method was developed with a run time of only 4.5 minutes.
No metal ions were included in the reaction.
Further analysis was conducted to identify one or more optimal SHC enzymes. In particular, substrate loading was increased to 20 mg/mL and incubation with a reduced enzyme loading (50%).

Row | Molecule | conversion of HFA to sclareolide
1 | B1 | did not show any conversion

Same assay, conditions: 10 mg/mL HFA, 100% enzyme loading; based on % peak area; relative to V45L+Q54E+I278T+T326S variant; no metal ions

Row | Molecule | Fold improvement (sclareolide production)
2 | B2 | 4.2 Fold
3 | B3 | 4.2 Fold
4 | B4 | 3.9 Fold
5 | B5 | 7.4 Fold
6 | B6 | 5.4 Fold
7 | B7 | 3.3 Fold
8 | B8 | -0- Fold

Same assay, conditions: 20 mg/mL HFA, 50% enzyme loading; relative to initial mutant

Row | Molecule | Fold improvements (sclareolide production)
9 | B9 | 33.2 Fold
10 | B10 | 44.6 Fold
11 | B2 | 27 Fold
12 | B11 | 37.3 Fold
13 | B12 | 20.4 Fold
14 | B3 | 7 Fold
15 | B13 | 27 Fold
16 | B14 | 43.8 Fold
17 | B4 | 30.3 Fold
18 | B15 | 25.6 Fold
19 | B5 | 28.4 Fold
20 | B16 | 46.2 Fold
21 | B6 | 12 Fold
22 | B8 | 0 Fold

From patent US20250368978A1, “SQUALENE HOPENE CYCLASE VARIANTS FOR PRODUCING SCLAREOLIDE” (INTERNATIONAL FLAVORS & FRAGRANCES INC., priority 2022, published 2025)
